# System: isolated pancreatic islets from mice
# Test: RNAseq gene expression in isolated pancreatic islets of GCGR antibody treated mice (Table 5)
# Format: in vivo, mouse
# Conditions: isolated islets, 10 mg/kg, 21 days
# Experimental: Mouse islets were isolated by density gradient separation after perfusing pancreas with Liberase TL (Roche, Indianapolis) through the common bile duct. Following a 13 min digestion at 37° C., the pancreas solution was washed and filtered through a 400-μm wire mesh strainer and islets were separated by Histopaque gradient centrifugation (Sigma-Aldrich). Isolated islets were cultured overnight in RPMI-1640 medium supplemented with 10% (v/v) FBS, 10 mM HEPES, 50 μM β-mercaptoethanol, 1.0 mM sodium-pyruvate, 100 U/mL penicillin and 100 μg/mL streptomycin at 37° C. with a 5% CO2 in air atmosphere.
# Total RNA was purified from all samples using MagMAX™-96 for Microarrays Total RNA Isolation Kit (Ambion by Life Technologies) according to manufacturer's specifications. Genomic DNA was removed using MagMAX™Turbo™DNase Buffer and TURBO DNase from the MagMAX kit listed above (Ambion by Life Technologies). mRNA was purified from total RNA using Dynabeads® mRNA Purification Kit (Invitrogen). Strand-specific RNA-seq libraries were prepared using ScriptSeq™ mRNA-Seq Library Preparation Kit (Epicentre). Twelve-cycle PCR was performed to amplify libraries. Sequencing was performed on Illumina HiSeq®2000 (Illumina) by multiplexed single-read run with 33 cycles.
# Raw sequence data (BCL files) were converted to FASTQ format via Illumina Casava 1.8.2. Reads were decoded based on their barcodes and read quality was evaluated with FastQC (http://www.bioinformatics.babraham.ac.uk/projects/fastqc/). Reads were mapped to the mouse transcriptome (NCBI GRCh37) using CLC Genomics Workbench Version 7.0 (CLCbio) or TopHat2 (Version 2.0.10) allowing two mismatches. Reads mapped to the exons of a gene were summed at the gene level. To identify differentially expressed genes, the statistical significance (p-value) of the differential expressions was assessed with DESeq package (version 1.6 or 2.0). […]
molecule,measurement,setting,value
"α-GCGR: potent monoclonal GCGR blocking antibody, HCVR/LCVR SEQ ID NOs: 86/88 (antibody, V domains shown) VH: EVQLVESGGGLVQPGGSLRLSCAASGFTFSNYLMNWVRQAPGKGLEWLANIQEDGIEKYYVDSVKGRFTISRDNAKNSLYLQMNSLRAEDTAVYYCAREPSHYDILTGYDYYYGMDVWGQGTTVTVS VL: DIQMTQSPSSLSASVGDRVTITCRASQGIRNDLGWYQQKPGKAPKRLIYAASSLQSGVPSRFSGSGSGTEFILTVSSLQPEDFATYYCLQYNSNPFTFGPGTKVDIK",1700086L19Rik RPKM,gene 1700086L19Rik,119.24 RPKM
same,1810011O10Rik RPKM,gene 1810011O10Rik,5.88 RPKM
same,1810041L15Rik RPKM,gene 1810041L15Rik,3.14 RPKM
same,4930539E08Rik RPKM,gene 4930539E08Rik,5.64 RPKM
same,9030617O03Rik RPKM,gene 9030617O03Rik,5.31 RPKM
same,AW551984 RPKM,gene AW551984,5.27 RPKM
same,Acta1 RPKM,gene Acta1,1.05 RPKM
same,Agpat4 RPKM,gene Agpat4,4.89 RPKM
same,Agt RPKM,gene Agt,22.33 RPKM
same,Ang RPKM,gene Ang,69.38 RPKM
same,Ano1 RPKM,gene Ano1,1.26 RPKM
same,Anxa3 RPKM,gene Anxa3,11.67 RPKM
same,Anxa13 RPKM,gene Anxa13,0.65 RPKM
same,Apoa2 RPKM,gene Apoa2,10.76 RPKM
same,Apod RPKM,gene Apod,2.75 RPKM
same,Apol7a RPKM,gene Apol7a,0.28 RPKM
same,Arg1 RPKM,gene Arg1,59.62 RPKM
same,Arx RPKM,gene Arx,6.42 RPKM
same,Asb11 RPKM,gene Asb11,1.00 RPKM
same,Avpr1b RPKM,gene Avpr1b,4.45 RPKM
same,Basp1 RPKM,gene Basp1,11.31 RPKM
same,Blnk RPKM,gene Blnk,3.87 RPKM
same,Bok RPKM,gene Bok,1.31 RPKM
same,Car9 RPKM,gene Car9,0.79 RPKM
same,Cdc42ep1 RPKM,gene Cdc42ep1,1.77 RPKM
same,Clec2d RPKM,gene Clec2d,9.10 RPKM
same,Clic6 RPKM,gene Clic6,0.26 RPKM
same,Clu RPKM,gene Clu,481.69 RPKM
same,Cnih2 RPKM,gene Cnih2,1.98 RPKM
same,Cobl RPKM,gene Cobl,2.27 RPKM
same,Ctse RPKM,gene Ctse,1.73 RPKM
same,Dbpht2 RPKM,gene Dbpht2,27.59 RPKM
same,Dmbt1 RPKM,gene Dmbt1,10.80 RPKM
same,Dpp6 RPKM,gene Dpp6,8.00 RPKM
same,Drc1 RPKM,gene Drc1,4.67 RPKM
same,Eda2r RPKM,gene Eda2r,1.98 RPKM
same,Eef1a2 RPKM,gene Eef1a2,35.85 RPKM
same,Ehf RPKM,gene Ehf,10.90 RPKM
same,Etv1 RPKM,gene Etv1,33.99 RPKM
same,F5 RPKM,gene F5,1.71 RPKM
same,Ffar4 RPKM,gene Ffar4,5.88 RPKM
same,Fgd3 RPKM,gene Fgd3,0.83 RPKM
same,Fgl2 RPKM,gene Fgl2,37.91 RPKM
same,Gamt RPKM,gene Gamt,0.58 RPKM
same,Gbp8 RPKM,gene Gbp8,7.39 RPKM
same,Gbp9 RPKM,gene Gbp9,4.03 RPKM
same,Gc RPKM,gene Gc,153.00 RPKM
same,Gcg RPKM,gene Gcg,63254.16 RPKM
same,Gcnt4 RPKM,gene Gcnt4,3.02 RPKM
same,Gfra1 RPKM,gene Gfra1,3.43 RPKM
same,Gfra3 RPKM,gene Gfra3,8.18 RPKM
same,Gm609 RPKM,gene Gm609,6.28 RPKM
same,Gm20554 RPKM,gene Gm20554,2.33 RPKM
same,Gng2 RPKM,gene Gng2,7.35 RPKM
same,Gpr119 RPKM,gene Gpr119,15.35 RPKM
same,Gpx3 RPKM,gene Gpx3,638.48 RPKM
same,Hspb1 RPKM,gene Hspb1,10.32 RPKM
same,Ifih1 RPKM,gene Ifih1,10.68 RPKM
same,Igsf23 RPKM,gene Igsf23,0.40 RPKM
same,Irx1 RPKM,gene Irx1,5.96 RPKM
same,Irx2 RPKM,gene Irx2,8.92 RPKM
same,Itgb4 RPKM,gene Itgb4,1.65 RPKM
same,Jchain RPKM,gene Jchain,74.91 RPKM
same,Kcna2 RPKM,gene Kcna2,0.81 RPKM
same,Kcnab3 RPKM,gene Kcnab3,2.28 RPKM
same,Kcnf1 RPKM,gene Kcnf1,0.86 RPKM
same,Kcnk3 RPKM,gene Kcnk3,8.14 RPKM
same,Klb RPKM,gene Klb,4.59 RPKM
same,Klhl13 RPKM,gene Klhl13,5.34 RPKM
same,Krt19 RPKM,gene Krt19,26.52 RPKM
same,Krt20 RPKM,gene Krt20,0.65 RPKM
same,Krt23 RPKM,gene Krt23,2.17 RPKM
same,Lamb3 RPKM,gene Lamb3,1.16 RPKM
same,Mafb RPKM,gene Mafb,24.19 RPKM
same,Mamld1 RPKM,gene Mamld1,5.64 RPKM
same,Mapk13 RPKM,gene Mapk13,2.86 RPKM
same,Matn2 RPKM,gene Matn2,2.36 RPKM
same,Ndst4 RPKM,gene Ndst4,6.30 RPKM
same,Necab2 RPKM,gene Necab2,7.29 RPKM
same,Nefm RPKM,gene Nefm,6.35 RPKM
same,Npr1 RPKM,gene Npr1,3.07 RPKM
same,Nptxr RPKM,gene Nptxr,4.03 RPKM
same,Nsg2 RPKM,gene Nsg2,3.49 RPKM
same,Ntn1 RPKM,gene Ntn1,0.65 RPKM
same,Nudt11 RPKM,gene Nudt11,8.49 RPKM
same,Nyap1 RPKM,gene Nyap1,3.82 RPKM
same,Ocrl RPKM,gene Ocrl,37.04 RPKM
same,Oit1 RPKM,gene Oit1,4.78 RPKM
same,Olfm3 RPKM,gene Olfm3,3.59 RPKM
same,Oxtr RPKM,gene Oxtr,7.25 RPKM
same,Pdk4 RPKM,gene Pdk4,25.17 RPKM
same,Peg10 RPKM,gene Peg10,17.17 RPKM
same,Pla2g2d RPKM,gene Pla2g2d,5.69 RPKM
same,Ptf1a RPKM,gene Ptf1a,0.52 RPKM
same,Ptprd RPKM,gene Ptprd,4.67 RPKM
same,Ptprg RPKM,gene Ptprg,3.12 RPKM
same,Rasd1 RPKM,gene Rasd1,10.12 RPKM
same,Rbms3 RPKM,gene Rbms3,2.38 RPKM
same,Rbp4 RPKM,gene Rbp4,210.71 RPKM
same,Rcn1 RPKM,gene Rcn1,12.75 RPKM
same,Rragb RPKM,gene Rragb,33.15 RPKM
same,Sema3e RPKM,gene Sema3e,2.28 RPKM
same,Serpinb6b RPKM,gene Serpinb6b,1.59 RPKM
same,Serpine2 RPKM,gene Serpine2,10.10 RPKM
same,Serping1 RPKM,gene Serping1,82.99 RPKM
same,Sftpd RPKM,gene Sftpd,4.65 RPKM
same,Sgce RPKM,gene Sgce,10.55 RPKM
same,Sh2d4a RPKM,gene Sh2d4a,0.65 RPKM
same,Sh3bgr RPKM,gene Sh3bgr,3.39 RPKM
same,Slc38a3 RPKM,gene Slc38a3,0.79 RPKM
same,Slc38a5 RPKM,gene Slc38a5,52.26 RPKM
same,Smarca1 RPKM,gene Smarca1,15.49 RPKM
same,Spns2 RPKM,gene Spns2,0.98 RPKM
same,St8sia1 RPKM,gene St8sia1,2.35 RPKM
same,Syt16 RPKM,gene Syt16,2.26 RPKM
same,Tead2 RPKM,gene Tead2,2.17 RPKM
same,Tesc RPKM,gene Tesc,4.72 RPKM
same,Tmsb15b1 RPKM,gene Tmsb15b1,28.28 RPKM
same,Tspan1 RPKM,gene Tspan1,1.40 RPKM
same,Ttr RPKM,gene Ttr,5356.49 RPKM
same,Vnn1 RPKM,gene Vnn1,0.42 RPKM
same,Vwde RPKM,gene Vwde,5.37 RPKM
same,Wfdc16 RPKM,gene Wfdc16,5.87 RPKM
same,Wnk3 RPKM,gene Wnk3,9.33 RPKM
